For this assay, the target named is T1, uPAR (species and form not stated).
T1 construct: also called uPA receptor

Where only a bound is given, the exact number is not on record here.

The record followed here is patent US20140023715A1 (EMORY UNIVERSITY, published 2014).

T1 sequence (Q03405 23-305): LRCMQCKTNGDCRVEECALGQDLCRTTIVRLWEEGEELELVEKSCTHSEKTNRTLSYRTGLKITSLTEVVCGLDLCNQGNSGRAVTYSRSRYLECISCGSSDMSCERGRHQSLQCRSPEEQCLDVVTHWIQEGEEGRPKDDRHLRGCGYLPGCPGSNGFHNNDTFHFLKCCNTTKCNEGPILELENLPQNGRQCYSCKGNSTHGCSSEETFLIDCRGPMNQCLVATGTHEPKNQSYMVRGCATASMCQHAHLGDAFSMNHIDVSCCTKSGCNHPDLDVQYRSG

B1: recombinant mouse amino terminal fragment (ATF, 135 aa) of uPA (ligand, UniProt P06869 21-155, looked up)
chain: GSVLGAPDESNCGCQNGGVCVSYKYFSRIRRCSCPRKFQGEHCEIDASKTCYHGNGDSYRGKANTDTKGRPCLAWNAPAVLQKPYNAHRPDAISLGLGKHNYCRNPDNQKRPWCYVQIGLRQFVQECMVHDCSLS
notes: range 1-135; 17 kDa, made in E. coli BL21; also called mouse ATF peptide; murine ATF; not shown: tag from vector pET101/D-TOPO (purified on Ni-NTA)
For orientation: Kd means a measure of binding affinity in units of concentration. Read a high Kd as lower affinity. As for B1, the Kd was < 1 nM.
